The values that follow come from publication PMC9700705, “A non-carboxylating pentose bisphosphate pathway in halophilic archaea” (Communications Biology, 2022).

In data set [1] the target is T1, Hx-RbsK (ATP-R1PK) (Halopiger xanaduensis, UniProt F8D4I6).
T1 construct: gene Halxa_1682; recombinant from E. coli Rosetta (DE3), codon-optimised synthetic gene in pET-21a(+) NdeI/BamHI, purified on anion exchange, hydroxyapatite and gel filtration
Kind of data set: PK/LDH-coupled NDP quantification; HPLC of product R15P. The data set is classed as biochemical. The note with it: 20 mM MgCl2, 2 M KCl, pH 8.3-8.4, 47 °C.

Data set [2] deals with T1, Hx-RbsK (ATP-R1PK). Kind of data set: PK/LDH-coupled NDP quantification. The data set is classed as biochemical. To be noted: 25 mM R1P, 20 mM MgCl2, 0.8 M NaCl, 42 °C.
Data set [3] has as its target T2, glycolaldehyde reductase (GaR, VNG_6270G) (Halobacterium salinarum, UniProt Q9HHR2).
T2 construct: native protein purified from H. salinarum cell-free extract (hydroxyapatite, Superdex200), identified by LC-MS; plasmid-encoded; GenBank entry is the codon-optimised recombinant gene (Hs-GaR)
T2 sequence (Q9HHR2 1-365): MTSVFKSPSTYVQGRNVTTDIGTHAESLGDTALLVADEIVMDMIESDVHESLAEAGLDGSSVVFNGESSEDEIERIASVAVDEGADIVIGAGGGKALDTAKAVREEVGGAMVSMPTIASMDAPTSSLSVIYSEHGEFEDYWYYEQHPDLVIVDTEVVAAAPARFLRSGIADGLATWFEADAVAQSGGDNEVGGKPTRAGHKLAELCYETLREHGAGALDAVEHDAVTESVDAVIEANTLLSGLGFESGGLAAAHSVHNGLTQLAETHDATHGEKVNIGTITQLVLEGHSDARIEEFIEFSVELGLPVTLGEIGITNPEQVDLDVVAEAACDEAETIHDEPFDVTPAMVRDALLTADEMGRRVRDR
In words: NADH consumption at […] nm. The data set is classed as biochemical. The note with it: 0.2 mM NADH, 50 mM MES-NaOH pH 6.0, 3 M KCl, 40 °C; fit with substrate inhibition; substrate inhibition constant, second site.

Substrate in data set [4]: O=P(O)(O)O
In words: purified protein. The note with it: 1 mM guanosine, 2 M KCl, 30 °C.

Substrate in data set [5]: Nc1nc2c(ncn2[C@@H]2O[C@H](CO)[C@@H](O)[C@H]2O)c(=O)[nH]1
In words: purified protein. It is filed as biochemical, Halorubrum lacusprofundi. The note with it: 50 mM sodium phosphate pH 7.5, 2 M KCl, 30 °C.

Substrate in data set [6]: O=C(COP(=O)(O)O)[C@H](O)[C@H](O)COP(=O)(O)O
Kind of data set: purified protein. The data set is classed as biochemical, Halopiger xanaduensis. To be noted: 50 mM Tris-HCl pH 7.5, 2 M KCl, 5 mM MgCl2.

Substrate in data set [7]: O=C(CO)COP(=O)(O)O
Kind of data set: HPLC of Ru1P formed (condensation direction). The note with it: 50 mM glycolaldehyde, 50 mM Tris-HCl pH 8.0, 2 M KCl, 1 mM ZnCl2, 47 °C. It is filed as biochemical, Halopiger xanaduensis.

Substrate in data set [8]: O=CCO
In words: HPLC of Ru1P formed (condensation direction). The note with it: 20 mM DHAP, 50 mM Tris-HCl pH 8.0, 2 M KCl, 1 mM ZnCl2, 47 °C. The data set is classed as biochemical, Halopiger xanaduensis.

Substrate in data set [9]: O=CCO
In words: purified protein. It is filed as biochemical, Halobacterium salinarum. To be noted: 0.2 mM NADH, 50 mM MES-NaOH pH 6.0, 3 M KCl, 40 °C, fit with substrate inhibition.

T1 sequence (F8D4I6 whole entry): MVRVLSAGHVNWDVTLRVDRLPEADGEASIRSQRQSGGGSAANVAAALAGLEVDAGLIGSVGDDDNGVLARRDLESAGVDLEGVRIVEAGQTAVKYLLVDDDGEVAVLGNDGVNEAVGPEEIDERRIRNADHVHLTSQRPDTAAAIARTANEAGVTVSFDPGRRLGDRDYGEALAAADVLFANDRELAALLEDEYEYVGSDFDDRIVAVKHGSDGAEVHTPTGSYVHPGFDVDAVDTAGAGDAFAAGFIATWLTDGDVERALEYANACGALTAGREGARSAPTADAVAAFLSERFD

For `O=P(O)(O)O[C@H]1O[C@H](CO)[C@@H](O)[C@H]1O` [R1P], on Hx-RbsK (ATP-R1PK) [1], the “PK/LDH-coupled NDP quantification; HPLC of product R15P” value is listed as “HPLC analysis of the Hx-RbsK reaction product indicated that R15P was generated from R1P”.
With `Nc1ncnc2c1ncn2[C@@H]1O[C@H](COP(=O)(O)OP(=O)(O)OP(=O)(O)O)[C@@H](O)[C@H]1O` [ATP], the “PK/LDH-coupled NDP quantification” value at Hx-RbsK (ATP-R1PK) [2] is “Using R1P as the phosphate acceptor, the enzyme preferred ATP among NTPs”.
`O=CCO` [glycolaldehyde]: the Ks2 in data set [3] amounted to 35 ± 8 mM.

B1: Hl-Urdpase1 (guanosine phosphorylase) (Halorubrum lacusprofundi ATCC 49239) (protein)
chain: MAKQPHLLVEEGDVHEIAIIPGDPGRVDRIADLCDDSELVAQNREYKIVNASYDGTDLTICSTGIGCPSAAIAVEELSRVGVETFLRCGTCGALQADMEVGDMVVATGAAKEEGTSKRYESVEYPAVPDYDALTELVGAAEDNDEEIHVGPIVSDDAFYNESDEYVDDWNDANLLAIEMEAATVFALARRKGLRAGAICTVDGNLVAGNQKGADSDDELPEKAKDNVERAIRITLNAVTAL
notes: recombinant from E. coli BL21-CodonPlus(DE3)-RIL, codon-optimised synthetic gene in pET-21a(+) NdeI/BamHI, purified on hydroxyapatite and gel filtration
Turning to B1, the Km worked out at 4.8 ± 0.8 mM in the data set “purified protein [4]” and 56 ± 10 µM in “purified protein [5]”.

B2: Hx-HAD hydrolase (RuBP phosphatase) (Halopiger xanaduensis SH-6) (protein)
chain: MATAVLFDLDNTLYPYPPCNQAGKAAALERAQELGYDFDHESFAEFYQAGRREVKRDTGGTAASHERYLYFKRALELHTGSPRPGDALALGDAYWSAYLEEMSLVPDAKETLEELQEQGVDIAITTNLTTTIQLAKLERLGLTDYVDLVLTSEETGQEKPASVMFTLPLARLDSRASEAVMVGDDLEADIAGANAVGLETVLFDPSEESDATESADRAATERQADHSIDTLGELTDLVS
notes: recombinant from E. coli Rosetta (DE3), codon-optimised synthetic gene in pET-21a(+) NdeI/BamHI, purified on hydroxyapatite and gel filtration
Turning to B2, the Km in the data set “purified protein [6]” is recorded as 2.2 ± 0.5 mM.

B3: Hx-FucA (Ru1P aldolase) (Halopiger xanaduensis SH-6) (protein)
chain: MILETERRAVVEHASELADLTPGRTGNLSVRGSGDDTDAGPGDAFAITPTGVPYDGFDVEDVPVVGTDGERLDGEMAPSSEVPMHSAIYRREDVGAIVHTHSPWATALAVANQPLPPIHYMIVAVGKRVPVAEYAPYGTDELAENIVTAMTEAGSTASLIENHGLVVTAPDLETALENTHHVESLARLYLESRSAGLEPQTLTDDQLETVLEKFESYGQ
notes: recombinant from E. coli Rosetta (DE3), codon-optimised synthetic gene in pET-21a(+) NdeI/BamHI, purified on anion exchange, hydroxyapatite and gel filtration
For B3, the Michaelis-Menten constant (Km) stood at 3.5 ± 0.3 mM in [7] and 3.4 ± 0.3 mM in data set [8].

B4: glycolaldehyde reductase (GaR, VNG_6270G) (Halobacterium salinarum NRC-1) (protein)
chain: MTSVFKSPSTYVQGRNVTTDIGTHAESLGDTALLVADEIVMDMIESDVHESLAEAGLDGSSVVFNGESSEDEIERIASVAVDEGADIVIGAGGGKALDTAKAVREEVGGAMVSMPTIASMDAPTSSLSVIYSEHGEFEDYWYYEQHPDLVIVDTEVVAAAPARFLRSGIADGLATWFEADAVAQSGGDNEVGGKPTRAGHKLAELCYETLREHGAGALDAVEHDAVTESVDAVIEANTLLSGLGFESGGLAAAHSVHNGLTQLAETHDATHGEKVNIGTITQLVLEGHSDARIEEFIEFSVELGLPVTLGEIGITNPEQVDLDVVAEAACDEAETIHDEPFDVTPAMVRDALLTADEMGRRVRDR
notes: native protein purified from H. salinarum cell-free extract (hydroxyapatite, Superdex200), identified by LC-MS; plasmid-encoded; GenBank entry is the codon-optimised recombinant gene (Hs-GaR)
For the molecule B4, in the data set “purified protein [9]”, the Km turned out to be 10 ± 2 mM.

As usually defined, the Km is the substrate concentration at which the rate is half of its maximum.
